Reference: article PMC10713552 (Communications Biology, 2023)
Substitutions are numbered along the chain they refer to.

B1: 0324-LN3_T65H (antibody, V domains shown)
VH: QVQLQQWGPGLVNPSETLSLTCSVSGGSFATENYYWSWIRQHPGEGLEWIGNIYFSGNHYYNPSLNNRFTISFDTSKNHLSLKLPSVTAADTAVYYCARGTIYFDLSGYRRVDPFHIWGQGTMVIVSS
VL: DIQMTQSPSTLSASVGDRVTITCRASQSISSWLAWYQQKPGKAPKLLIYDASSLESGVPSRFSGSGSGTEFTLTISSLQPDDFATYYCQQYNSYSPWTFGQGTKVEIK
notes: source: Expi293F, transfected
B2: 0305-IN3_T65H (antibody, V domains shown)
VH: B1 VH with L106I
VL: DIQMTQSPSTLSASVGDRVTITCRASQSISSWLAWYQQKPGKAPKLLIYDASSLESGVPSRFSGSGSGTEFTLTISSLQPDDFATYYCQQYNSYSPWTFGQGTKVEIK
notes: source: Expi293F, transfected
B3: 0300-IN3_T65A (antibody, V domains shown)
VH: B1 VH with H59A, L106I
VL: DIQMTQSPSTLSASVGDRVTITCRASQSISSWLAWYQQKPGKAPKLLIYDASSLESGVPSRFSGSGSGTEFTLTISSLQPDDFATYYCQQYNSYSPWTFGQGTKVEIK
notes: source: Expi293F, transfected
B4: 0308-IN3_T65L (antibody, V domains shown)
VH: B1 VH with H59L, L106I
VL: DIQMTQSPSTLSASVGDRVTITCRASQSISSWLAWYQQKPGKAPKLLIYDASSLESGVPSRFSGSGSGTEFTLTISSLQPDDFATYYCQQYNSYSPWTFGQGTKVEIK
notes: source: Expi293F, transfected
B5: 0306-IN3_T65I (antibody, V domains shown)
VH: B1 VH with H59I, L106I
VL: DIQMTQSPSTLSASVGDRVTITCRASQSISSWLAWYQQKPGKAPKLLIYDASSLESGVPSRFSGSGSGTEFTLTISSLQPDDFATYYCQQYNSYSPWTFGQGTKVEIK
notes: source: Expi293F, transfected
B6: 0303-IN3_T65F (antibody, V domains shown)
VH: B1 VH with H59F, L106I
VL: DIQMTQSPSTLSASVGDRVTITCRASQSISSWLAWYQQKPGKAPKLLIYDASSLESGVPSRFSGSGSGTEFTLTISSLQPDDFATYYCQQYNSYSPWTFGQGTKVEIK
notes: source: Expi293F, transfected
B7: 0301-IN3_T65D (antibody, V domains shown)
VH: B1 VH with H59D, L106I
VL: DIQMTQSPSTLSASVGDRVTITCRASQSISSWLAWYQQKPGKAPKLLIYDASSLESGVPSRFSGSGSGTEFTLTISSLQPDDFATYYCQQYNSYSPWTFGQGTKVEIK
notes: source: Expi293F, transfected
B8: 0313-IN3_T65R (antibody, V domains shown)
VH: B1 VH with H59R, L106I
VL: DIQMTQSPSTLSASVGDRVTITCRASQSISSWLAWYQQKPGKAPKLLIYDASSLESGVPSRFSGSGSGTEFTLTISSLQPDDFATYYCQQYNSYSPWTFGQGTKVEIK
notes: source: Expi293F, transfected
B9: 0342-MN3_T65G (antibody, V domains shown)
VH: B1 VH with H59G, L106M
VL: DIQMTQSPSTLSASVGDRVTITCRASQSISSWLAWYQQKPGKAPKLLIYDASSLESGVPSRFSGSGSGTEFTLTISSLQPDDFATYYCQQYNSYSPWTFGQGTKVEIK
notes: source: Expi293F, transfected
B10: 0302-IN3_T65E (antibody, V domains shown)
VH: B1 VH with H59E, L106I
VL: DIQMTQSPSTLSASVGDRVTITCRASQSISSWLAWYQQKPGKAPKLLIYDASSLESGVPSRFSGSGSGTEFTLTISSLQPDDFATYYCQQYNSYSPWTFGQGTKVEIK
notes: source: Expi293F, transfected
B11: 0316-IN3_T65V (antibody, V domains shown)
VH: B1 VH with H59V, L106I
VL: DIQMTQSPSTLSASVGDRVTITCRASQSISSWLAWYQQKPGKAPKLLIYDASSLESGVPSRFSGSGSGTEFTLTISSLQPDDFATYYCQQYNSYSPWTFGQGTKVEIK
notes: source: Expi293F, transfected
B12: 0311-IN3_T65P (antibody, V domains shown)
VH: B1 VH with H59P, L106I
VL: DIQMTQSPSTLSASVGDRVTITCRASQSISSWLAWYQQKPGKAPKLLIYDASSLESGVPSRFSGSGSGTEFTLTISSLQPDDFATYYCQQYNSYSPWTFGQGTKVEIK
notes: source: Expi293F, transfected
B13: 0333-LN3_T65S (antibody, V domains shown)
VH: B1 VH with H59S
VL: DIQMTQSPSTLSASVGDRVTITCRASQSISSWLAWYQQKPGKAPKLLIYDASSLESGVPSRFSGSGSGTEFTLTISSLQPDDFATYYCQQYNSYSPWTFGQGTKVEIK
notes: source: Expi293F, transfected
B14: 0337-LN3_T65Y (antibody, V domains shown)
VH: B1 VH with H59Y
VL: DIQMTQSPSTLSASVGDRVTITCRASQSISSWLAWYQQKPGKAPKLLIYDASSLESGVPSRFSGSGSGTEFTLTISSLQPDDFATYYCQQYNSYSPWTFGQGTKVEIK
notes: source: Expi293F, transfected
B15: 0370-N3_T65R (antibody, V domains shown)
VH: B1 VH with H59R, L106R
VL: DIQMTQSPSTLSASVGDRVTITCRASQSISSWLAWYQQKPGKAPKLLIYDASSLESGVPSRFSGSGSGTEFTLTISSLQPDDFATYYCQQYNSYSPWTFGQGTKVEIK
notes: source: Expi293F, transfected
B16: 0312-IN3_T65Q (antibody, V domains shown)
VH: B1 VH with H59Q, L106I
VL: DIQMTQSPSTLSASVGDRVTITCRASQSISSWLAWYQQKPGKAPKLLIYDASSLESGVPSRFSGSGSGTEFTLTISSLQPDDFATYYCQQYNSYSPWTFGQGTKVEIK
notes: source: Expi293F, transfected
B17: 0377-YN3_T65D (antibody, V domains shown)
VH: B1 VH with H59D, L106Y
VL: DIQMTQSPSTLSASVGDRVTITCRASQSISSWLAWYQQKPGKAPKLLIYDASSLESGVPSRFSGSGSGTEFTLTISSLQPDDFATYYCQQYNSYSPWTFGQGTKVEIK
notes: source: Expi293F, transfected
B18: 0309-IN3_T65M (antibody, V domains shown)
VH: B1 VH with H59M, L106I
VL: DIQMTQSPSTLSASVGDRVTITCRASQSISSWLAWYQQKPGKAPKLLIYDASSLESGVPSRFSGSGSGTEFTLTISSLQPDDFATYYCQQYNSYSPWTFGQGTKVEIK
notes: source: Expi293F, transfected
B19: 0373-N3_T65V (antibody, V domains shown)
VH: B1 VH with H59V, L106R
VL: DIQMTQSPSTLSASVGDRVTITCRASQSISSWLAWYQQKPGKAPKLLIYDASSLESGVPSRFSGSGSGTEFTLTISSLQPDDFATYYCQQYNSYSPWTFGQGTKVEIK
notes: source: Expi293F, transfected
B20: 0317-IN3_T65W (antibody, V domains shown)
VH: B1 VH with H59W, L106I
VL: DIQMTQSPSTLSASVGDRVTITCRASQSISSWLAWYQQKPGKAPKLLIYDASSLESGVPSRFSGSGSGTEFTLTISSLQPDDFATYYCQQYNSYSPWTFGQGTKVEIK
notes: source: Expi293F, transfected
B21: 0360-N3_T65F (antibody, V domains shown)
VH: B1 VH with H59F, L106R
VL: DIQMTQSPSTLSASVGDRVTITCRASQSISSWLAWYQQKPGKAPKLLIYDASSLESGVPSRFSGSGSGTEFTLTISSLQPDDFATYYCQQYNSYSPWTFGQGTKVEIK
notes: source: Expi293F, transfected
B22: 0338-MN3_T65A (antibody, V domains shown)
VH: B1 VH with H59A, L106M
VL: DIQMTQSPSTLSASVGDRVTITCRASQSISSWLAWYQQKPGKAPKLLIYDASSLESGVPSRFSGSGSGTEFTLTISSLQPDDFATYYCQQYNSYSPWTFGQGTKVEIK
notes: source: Expi293F, transfected
B23: 0318-IN3_T65Y (antibody, V domains shown)
VH: B1 VH with H59Y, L106I
VL: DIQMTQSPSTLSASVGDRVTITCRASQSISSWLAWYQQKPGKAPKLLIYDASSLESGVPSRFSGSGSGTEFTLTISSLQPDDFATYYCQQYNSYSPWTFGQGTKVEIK
notes: source: Expi293F, transfected
B24: 0307-IN3_T65K (antibody, V domains shown)
VH: B1 VH with H59K, L106I
VL: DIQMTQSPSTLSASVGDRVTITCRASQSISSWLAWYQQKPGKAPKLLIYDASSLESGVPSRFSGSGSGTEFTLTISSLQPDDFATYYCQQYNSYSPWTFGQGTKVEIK
notes: source: Expi293F, transfected
B25: 0330-LN3_T65P (antibody, V domains shown)
VH: B1 VH with H59P
VL: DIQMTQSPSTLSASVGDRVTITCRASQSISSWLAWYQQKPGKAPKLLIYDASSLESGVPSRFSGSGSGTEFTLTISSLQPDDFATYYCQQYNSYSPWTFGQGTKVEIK
notes: source: Expi293F, transfected
B26: 0388-YN3_T65Q (antibody, V domains shown)
VH: B1 VH with H59Q, L106Y
VL: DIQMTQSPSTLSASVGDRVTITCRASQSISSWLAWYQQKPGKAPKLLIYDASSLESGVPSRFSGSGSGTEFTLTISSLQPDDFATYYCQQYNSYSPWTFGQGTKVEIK
notes: source: Expi293F, transfected
B27: 0331-LN3_T65Q (antibody, V domains shown)
VH: B1 VH with H59Q
VL: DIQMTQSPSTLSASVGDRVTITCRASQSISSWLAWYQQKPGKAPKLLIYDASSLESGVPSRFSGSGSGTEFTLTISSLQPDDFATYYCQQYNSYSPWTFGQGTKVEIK
notes: source: Expi293F, transfected
B28: 0350-MN3_T65Q (antibody, V domains shown)
VH: B1 VH with H59Q, L106M
VL: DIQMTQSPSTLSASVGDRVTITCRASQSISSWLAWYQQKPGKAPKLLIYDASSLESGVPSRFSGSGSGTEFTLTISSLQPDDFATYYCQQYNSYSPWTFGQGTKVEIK
notes: source: Expi293F, transfected
B29: 0347-MN3_T65M (antibody, V domains shown)
VH: B1 VH with H59M, L106M
VL: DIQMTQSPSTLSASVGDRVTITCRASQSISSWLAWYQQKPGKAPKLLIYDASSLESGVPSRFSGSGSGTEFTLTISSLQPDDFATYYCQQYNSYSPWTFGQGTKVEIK
notes: source: Expi293F, transfected
B30: 0341-MN3_T65F (antibody, V domains shown)
VH: B1 VH with H59F, L106M
VL: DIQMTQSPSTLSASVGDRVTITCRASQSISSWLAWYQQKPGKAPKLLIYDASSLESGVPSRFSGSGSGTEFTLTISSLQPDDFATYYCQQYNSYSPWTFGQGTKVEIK
notes: source: Expi293F, transfected
B31: 0345-MN3_T65K (antibody, V domains shown)
VH: B1 VH with H59K, L106M
VL: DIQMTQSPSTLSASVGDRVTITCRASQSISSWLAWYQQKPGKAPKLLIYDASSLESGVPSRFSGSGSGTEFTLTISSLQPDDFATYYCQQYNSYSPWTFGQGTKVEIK
notes: source: Expi293F, transfected
B32: 0374-N3_T65W (antibody, V domains shown)
VH: B1 VH with H59W, L106R
VL: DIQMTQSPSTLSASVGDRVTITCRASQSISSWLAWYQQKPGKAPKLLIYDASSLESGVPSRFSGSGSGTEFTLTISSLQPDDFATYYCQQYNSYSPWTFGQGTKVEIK
notes: source: Expi293F, transfected
B33: 0348-MN3_T65N (antibody, V domains shown)
VH: B1 VH with H59N, L106M
VL: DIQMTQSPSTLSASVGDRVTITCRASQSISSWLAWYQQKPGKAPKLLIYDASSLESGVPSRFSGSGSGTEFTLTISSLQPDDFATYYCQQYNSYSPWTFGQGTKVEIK
notes: source: Expi293F, transfected
B34: 0340-MN3_T65E (antibody, V domains shown)
VH: B1 VH with H59E, L106M
VL: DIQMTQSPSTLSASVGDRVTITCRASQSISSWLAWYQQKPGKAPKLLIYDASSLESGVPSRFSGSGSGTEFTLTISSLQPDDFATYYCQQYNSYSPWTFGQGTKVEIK
notes: source: Expi293F, transfected
B35: 0332-LN3_T65R (antibody, V domains shown)
VH: B1 VH with H59R
VL: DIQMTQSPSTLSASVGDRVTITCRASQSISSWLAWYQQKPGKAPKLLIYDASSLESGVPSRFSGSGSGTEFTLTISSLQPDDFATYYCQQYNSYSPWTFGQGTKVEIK
notes: source: Expi293F, transfected
B36: 0314-IN3_T65S (antibody, V domains shown)
VH: B1 VH with H59S, L106I
VL: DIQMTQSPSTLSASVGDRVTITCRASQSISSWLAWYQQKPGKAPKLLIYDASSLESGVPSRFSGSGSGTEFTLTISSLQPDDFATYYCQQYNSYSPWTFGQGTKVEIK
notes: source: Expi293F, transfected

Each binder was assayed against D614G-Hexapro (WT) spike ectodomain (SARS-CoV-2 Wuhan-Hu-1 D614G, D614G) (assay: BLI).

Binder	Kd [nM]	koff [s⁻¹]	kon [M⁻¹ s⁻¹]
B1	0.276	0.000291	1.06e+06
B2	387	9.99e-05	258
B3	–	–	210
B4	515	0.000134	261
B5	524	0.000136	259
B6	0.129	0.000115	887000
B7	306	6.75e-05	221
B8	0.873	0.000516	591000
B9	69.1	0.000217	3140
B10	776	0.000163	210
B11	89.3	2.62e-05	294
B12	200	0.000578	2890
B13	146	4.17e-05	285
B14	87.3	0.000393	4500
B15	111	3.63e-05	328
B16	2.23	0.000511	229000
B17	634	0.000153	242

Binder	Kd [nM]	koff [s⁻¹]	kon [M⁻¹ s⁻¹]
B18	–	–	184
B19	324	0.000461	1420
B20	1.41	0.000282	199000
B21	355	0.000217	612
B22	373	0.000121	325
B23	1.07	0.000222	207000
B24	0.208	5.6e-05	269000
B25	686	0.00219	3190
B26	1910	0.00186	973
B27	1.18	0.00083	703000
B28	643	0.00015	233
B29	880	0.000233	264
B30	146	0.000179	1230
B31	346	7.97e-05	230
B32	–	–	190
B33	130	9.93e-05	765
B34	371	7.27e-05	196

What follows are binders tested against Omicron BA.1 spike protein ectodomain (BLI) (SARS-CoV-2 Omicron BA.1, strain) (assay: BLI).

Binder	Kd [nM]	koff [s⁻¹]	kon [M⁻¹ s⁻¹]
B1	1.16	0.000413	356000
B2	2.89	0.000368	128000
B3	3.61	0.000404	112000
B4	3.92	0.000364	93000
B5	4.36	0.000517	119000
B6	6.04	0.000575	95200
B7	6.38	0.000601	94200
B8	7.36	0.000758	103000
B9	8.08	0.000428	53000
B10	8.27	0.000634	76700
B11	10.6	0.000555	52400
B12	10.9	0.000965	88200
B13	11.7	0.000566	48500
B14	11.7	0.000305	26100
B15	12.1	0.000266	22000
B16	13.2	0.000887	67300
B17	13.4	0.000269	20100
B18	15.7	0.00102	64800

Binder	Kd [nM]	koff [s⁻¹]	kon [M⁻¹ s⁻¹]
B19	16	0.000565	35200
B20	16.3	0.000834	51200
B21	18.5	0.000659	35700
B22	25	0.00154	61800
B23	29.4	0.00117	39800
B24	31.7	0.000872	27500
B25	32.6	0.00229	70200
B26	37.7	0.00058	15400
B27	38.2	0.00223	58400
B28	38.5	0.000871	22700
B35	38.9	0.0018	46200
B29	39.7	0.00209	52700
B30	41.2	0.00171	41500
B31	41.4	0.00172	41600
B32	42.5	0.000694	16300
B33	43	0.00196	45700
B34	48.2	0.0021	43700
B36	68.7	0.00114	16600
